Laboratory results from patent US20120077731A1 (Ablynx, published 2012).
One block for each binder: values may come before it.

Key:
[1] = molecular target: T1, Human membrane IL-6R on cells (human, UniProt P08887 20-468); experiment: cell-based or functional assay
T1 sequence (looked up): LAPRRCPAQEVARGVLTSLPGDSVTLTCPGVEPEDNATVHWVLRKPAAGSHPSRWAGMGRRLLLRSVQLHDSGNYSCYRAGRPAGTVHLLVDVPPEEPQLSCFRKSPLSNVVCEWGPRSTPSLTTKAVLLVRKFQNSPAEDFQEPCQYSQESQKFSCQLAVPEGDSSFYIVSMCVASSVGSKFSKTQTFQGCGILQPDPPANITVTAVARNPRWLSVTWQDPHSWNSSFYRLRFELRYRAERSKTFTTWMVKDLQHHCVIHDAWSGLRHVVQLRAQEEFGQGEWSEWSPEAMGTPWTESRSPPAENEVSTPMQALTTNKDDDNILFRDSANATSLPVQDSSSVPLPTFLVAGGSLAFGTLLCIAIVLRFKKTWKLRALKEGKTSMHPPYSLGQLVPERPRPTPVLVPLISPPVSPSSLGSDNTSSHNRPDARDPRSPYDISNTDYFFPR

Human soluble IL-6R [2] = molecular target: T2, Human soluble IL-6R (human, UniProt P08887 20-358); experiment: Alphascreen, inhibition of bio-IL-6 binding to IL-6R
T2 construct: Soluble recombinant form; biotinylated in some assays; also called hIL-6R; human IL-6R
T2 sequence (looked up): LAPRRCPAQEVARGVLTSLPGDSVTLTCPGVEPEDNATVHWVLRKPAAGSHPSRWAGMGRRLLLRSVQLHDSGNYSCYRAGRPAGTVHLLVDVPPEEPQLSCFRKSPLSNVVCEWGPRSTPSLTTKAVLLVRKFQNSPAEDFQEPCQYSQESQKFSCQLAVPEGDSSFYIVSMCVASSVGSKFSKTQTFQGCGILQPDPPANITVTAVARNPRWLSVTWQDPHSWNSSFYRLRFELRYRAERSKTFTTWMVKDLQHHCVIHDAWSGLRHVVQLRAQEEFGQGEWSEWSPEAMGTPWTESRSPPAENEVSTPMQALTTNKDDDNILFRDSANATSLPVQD
Protocol: (§1) Finally streptavidin donor beads were added and after 1 hour incubator the plate was read on the Envision microplate reader.

Human soluble IL-6R [3] = molecular target: T2, Human soluble IL-6R; experiment: competition for IL-6R, competitor reference Fab, summary table C-13
[4] = molecular target: T1, Human membrane IL-6R on cells; experiment: cell-based or functional assay; remark: listed apart in the source
Human soluble IL-6R [5] = molecular target: T2, Human soluble IL-6R; experiment: SPR Biacore 3000, IL-6R amine-coupled to CM5
Protocol: (§2) Nanobodies were injected at 5 different concentrations between 1 and 50 nM. Flow rate was 45 μl/min in all experiments. Association and dissociation phase were 3 and 10 min, respectively. The chip was regenerated using Glycine/HCl pH 1.5.

[6] = molecular target: T1, Human membrane IL-6R on cells; experiment: cell-based or functional assay; remark: listed apart in the source
Human soluble IL-6R [7] = molecular target: T2, Human soluble IL-6R; experiment: summary table C-13 of Nanobody characteristics, Kd on IL-6R
Protocol: as §2

Human soluble IL-6R [8] = molecular target: T2, Human soluble IL-6R; experiment: Alphascreen, 100 nM Nanobody, 0.4 nM bio-IL-6R; competitor: reference Fab
Human soluble IL-6R [9] = molecular target: T2, Human soluble IL-6R; experiment: inhibition of the IL-6/IL-6R interaction, summary table C-13
Protocol: as §1

Human soluble IL-6R [10] = molecular target: T2, Human soluble IL-6R; experiment: Biacore off-rate, periplasmic extract
Human soluble IL-6R [11] = molecular target: T2, Human soluble IL-6R; experiment: SPR Biacore 3000, IL-6R amine-coupled to CM5; first koff listed; a separate determination, not the one behind the Kd
Human soluble IL-6R [12] = molecular target: T2, Human soluble IL-6R; experiment: SPR Biacore 3000, IL-6R amine-coupled to CM5; paired with the second koff of IL6R06 (r17c3)
Protocol: as §2

Cyno plasma sIL-6R [13] = molecular target: T3, Cyno plasma sIL-6R (cynomolgus monkey, UniProt A0A2K5WN54 60-396); experiment: plasma potency ELISA, cyno plasma
T3 construct: also called cynomolgus sIL-6R
T3 sequence: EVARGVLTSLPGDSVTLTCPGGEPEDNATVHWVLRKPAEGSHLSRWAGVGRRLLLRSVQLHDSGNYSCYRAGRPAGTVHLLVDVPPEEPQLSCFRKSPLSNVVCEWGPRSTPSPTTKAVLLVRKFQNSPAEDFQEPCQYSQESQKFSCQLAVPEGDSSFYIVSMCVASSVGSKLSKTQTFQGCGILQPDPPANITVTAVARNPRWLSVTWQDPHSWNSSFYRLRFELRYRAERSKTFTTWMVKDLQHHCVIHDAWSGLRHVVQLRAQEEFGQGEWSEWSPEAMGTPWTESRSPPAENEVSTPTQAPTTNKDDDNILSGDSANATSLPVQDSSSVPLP

Human plasma sIL-6R [14] = molecular target: T4, Human plasma sIL-6R (human, UniProt P08887 20-355, limits assumed); experiment: plasma potency assay, human plasma, 2.4 nM IL6; blocked ligand IL-6
T4 construct: also called plasma-derived human IL-6R
T4 sequence (looked up): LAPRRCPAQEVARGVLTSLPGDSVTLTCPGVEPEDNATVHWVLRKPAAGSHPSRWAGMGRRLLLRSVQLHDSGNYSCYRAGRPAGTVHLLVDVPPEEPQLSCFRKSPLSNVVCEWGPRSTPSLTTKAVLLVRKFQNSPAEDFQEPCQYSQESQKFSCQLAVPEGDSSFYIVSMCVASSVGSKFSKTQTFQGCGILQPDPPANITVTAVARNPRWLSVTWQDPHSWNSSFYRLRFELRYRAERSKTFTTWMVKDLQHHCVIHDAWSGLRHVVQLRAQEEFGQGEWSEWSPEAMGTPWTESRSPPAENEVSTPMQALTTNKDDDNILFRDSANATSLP
Protocol: (§3) All 5 affinity matured Nanobodies and the sequence optimized Nanobody were also tested in a plasma potency assay. […] TMB was used as substrate.

Human plasma sIL-6R [15] = molecular target: T4, Human plasma sIL-6R; experiment: plasma potency ELISA, human plasma, high IL-6 (EC95)
Human plasma sIL-6R [16] = molecular target: T4, Human plasma sIL-6R; experiment: plasma potency ELISA, human plasma + human IL-6 50 ng/mL; sIL-6R captured on BN-12, bound IL-6 detected; blocked ligand IL-6
Human plasma sIL-6R [17] = molecular target: T4, Human plasma sIL-6R; experiment: plasma potency ELISA, human plasma
[18] = molecular target: T1, Human membrane IL-6R on cells; experiment: cell-based or functional assay; remark: listed apart in the source
Human plasma sIL-6R [19] = molecular target: T4, Human plasma sIL-6R; experiment: plasma potency assay, human plasma, 42 nM IL6; blocked ligand IL-6
Protocol: as §3

Cyno plasma sIL-6R [20] = molecular target: T3, Cyno plasma sIL-6R; experiment: plasma potency ELISA, cyno plasma + human IL-6 50 ng/mL; sIL-6R captured on BN-12, bound IL-6 detected; blocked ligand IL-6
[21] = molecular target: T1, Human membrane IL-6R on cells; experiment: cell-based or functional assay; remark: listed apart in the source
Cyno plasma sIL-6R [22] = molecular target: T3, Cyno plasma sIL-6R; experiment: plasma potency ELISA, human against cyno plasma
Human plasma sIL-6R [23] = molecular target: T4, Human plasma sIL-6R; experiment: plasma potency ELISA, human plasma; human plasma
[24] = molecular target: T1, Human membrane IL-6R on cells; experiment: cell-based or functional assay; remark: listed apart in the source
Human plasma sIL-6R [25] = molecular target: T4, Human plasma sIL-6R; experiment: plasma potency ELISA, human plasma, normal IL-6 (EC50)
Mouse IL-6R = molecular target: T5, Mouse IL-6R (mouse, UniProt P22272 20-364, limits assumed); experiment: ELISA: plate coated with 1 µg/ml mouse IL-6R, 500 nM Nanobody, anti-myc + anti-mouse-HRP
T5 construct: also called mouse sIL-6R
T5 sequence (looked up): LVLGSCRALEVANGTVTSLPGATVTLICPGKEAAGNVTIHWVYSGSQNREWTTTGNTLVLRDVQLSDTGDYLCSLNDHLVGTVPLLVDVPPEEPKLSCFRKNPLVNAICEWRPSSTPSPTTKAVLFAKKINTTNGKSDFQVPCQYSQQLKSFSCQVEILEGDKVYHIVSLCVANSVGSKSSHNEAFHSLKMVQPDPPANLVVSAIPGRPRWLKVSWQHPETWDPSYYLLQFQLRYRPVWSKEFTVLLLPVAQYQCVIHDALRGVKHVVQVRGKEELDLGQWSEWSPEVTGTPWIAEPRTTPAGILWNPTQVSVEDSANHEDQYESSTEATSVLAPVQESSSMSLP
Protocol: Detection was performed with anti-myc and anti-mouse-HRP as first and second antibody respectively.

Human soluble IL-6R [26] = molecular target: T2, Human soluble IL-6R; experiment: summary table C-13 of Nanobody characteristics, Kd on IL-6R; summary table C-13

- IC50 (nM) XG-1 [1]: 42.1 nM
- IC50 (Human soluble IL-6R [2]): 1.21 nM
- Ref Fab competition (%) (Human soluble IL-6R [3]): 36%
- IC50 (nM), TF1 cell proliferation [4]: 138 nM
- koff (Human soluble IL-6R [5]): 0.00757 s⁻¹
- IC50 (nM), XG-1 cell proliferation [6]: 42.1 nM
- Kd (Human soluble IL-6R [7]): 7.1 nM
- Residual reference-Fab binding to IL-6R (%) (Human soluble IL-6R [8]): 36%
- IC50 (Human soluble IL-6R [9]): 1.21 nM
- koff (Human soluble IL-6R [10]): 0.000886 s⁻¹
- koff (Human soluble IL-6R [11]): 0.000886 s⁻¹
- Kd (Human soluble IL-6R [12]): 7.1 nM
- kon (Human soluble IL-6R [12]): 1.07e+06 M⁻¹ s⁻¹
B1: IL6R06 (VHH)
VHH: EVQLVESGGGLVQAGGSLRLSCAASGNIFDDNTMGWTWNRQPPGKQRELVAIIATDGSTNYADSVKGRFTISRDNAKNTVYLQMNSLKPEDTAVYYCNLFSLRLGRDYWGQGTQVTVSS
notes: also called PMP32E2; not shown: C-terminal c-myc and (His)6 tags

- IC50 (Cyno plasma sIL-6R [13]): 0.166 nM
- IC50 (Human plasma sIL-6R [14]): 0.2 nM
- IC50 (Human plasma sIL-6R [15]): 1.69 nM
- IC50 (read off the curve) (Human plasma sIL-6R [16]): ~0.04 nM
- Ratio (high/low) of IC50 (Human plasma sIL-6R [17]): 6.54
- IC50 (nM) + HSA, XG-1 proliferation assay [18]: 0.47 nM
- IC50 (Human plasma sIL-6R [19]): 1.7 nM
- IC50 (read off the curve) (Cyno plasma sIL-6R [20]): ~0.01 nM
- IC50 (nM), TF-1 proliferation at 100 IU/mL IL-6 [21]: 0.921 nM
- Ratio (human/cyno) of IC50 (Cyno plasma sIL-6R [22]): 1.55
- IC50 (Human plasma sIL-6R [23]): 0.258 nM
- IC50 (nM), TF-1 proliferation at 5000 IU/mL IL-6 [24]: 144 nM
- IC50 (Human plasma sIL-6R [25]): 0.258 nM
B2: Reference IgG (antibody, V domains shown)
VH: QVQLQESGPGLVRPSQTLSLTCTVSGYSITSDHAWSWVRQPPGRGLEWIGYISYSGITTYNPSLKSRVTMLRDTSKNQFSLRLSSVTAADTAVYYCARSLARTTAMDYWGQGSLVTVSS
VL: DIQMTQSPSSLSASVGDRVTITCRASQDISSYLNWYQQKPGKAPKLLIYYTSRLHSGVPSRFSGSGSGTDFTFTISSLQPEDIATYYCQQGNTLPYTFGQGTKVEIKR
notes: Full-length human IgG1 produced in CHO cells

- IC50 (Human soluble IL-6R [2]): 0.726 nM
- Ref Fab competition (%) (Human soluble IL-6R [3]): 49%
- Kd (Human soluble IL-6R [5]): 0.4 nM
- koff (Human soluble IL-6R [5]): 0.00011 s⁻¹
- kon (Human soluble IL-6R [5]): 262000 M⁻¹ s⁻¹
- Residual reference-Fab binding to IL-6R (%) (Human soluble IL-6R [8]): 49%
- binding result (Mouse IL-6R): no binding (tested: 500 nM)
- IC50 (Human soluble IL-6R [9]): 0.73 nM
- Kd (Human soluble IL-6R [26]): 0.4 nM
B3: IL6R01 (VHH)
VHH: EVQLVESGGGLVQPGGSLRLSCAASGFPLDYYAIGWFRQAPGKEREGVSCISSSDGSTYYADSVKGRFTISRDNAKNTVYLQMNSLKPEDTAVYYCALVHTTAQATGVPQREYEYEWWGQGTQVTVSS
notes: also called PMP28E11; not shown: C-terminal c-myc and (His)6 tags
